Results published in the supplement of paper PMC9732359.
± gives the uncertainty stated by the source.

Assay: protein stability index of a GFP-peptide fusion (yeast GPS) (PSI 1-4); higher = more stable; sorted into four equal gates, so the index is relative within each strain
Outline: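 Mid-log yeast cultures in leucine-free medium, carrying a pooled plasmid library, were sorted into four equal gates by their GFP/Cherry fluorescence ratio. Each plasmid expressed Cherry along with GFP fused upstream of a tiled 17-residue yeast protein peptide. Plasmids recovered from each gate were PCR-amplified and Illumina-sequenced, with reads assigned to strains by barcodes. The protein stability index was obtained by summing each gate's read frequency weighted by its gate number.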

Sequence | protein stability index (doa10∆) | protein stability index (pdr5∆) | protein stability index (san1∆) | protein stability index (ubr1∆)
HSFEDAHTPMLQMYSKI [FAS1] | 2.75 ± 0.06 | 3.03 ± 0.086 | 2.82 ± 0.096 | 2.84 ± 0.076
WYQFSNSKDHKKITLQL [SIN4] | 3.35 ± 0.13 | 3.47 ± 0.12 | 2.47 ± 0.22 | 2.86 ± 0.068
VTLASILTTAVGLVSPS [RPN1] | 1.98 ± 0.13 | 1.55 ± 0.081 | 2.25 ± 0.19 | 2.85 ± 0.087
IYDFHKMENLMRLIKRV [YJL039C/NUP192] | 2.58 ± 0.097 | 2.67 ± 0.079 | 2.3 ± 0.062 | 2.57 ± 0.073
YKVENVTLYWNNAKLLT [ESC2] | 1.71 ± 0.059 | 1.99 ± 0.051 | 1.71 ± 0.076 | 2.19 ± 0.043
PVNTGVLHVSAKGKSGV [RRP40] | 2.48 ± 0.1 | 2.1 ± 0.097 | 2.62 ± 0.14 | 2.64 ± 0.13
ENSYLRGLTPQEFFFHA [RPO21] | 2.49 ± 0.046 | 2.64 ± 0.046 | 2.45 ± 0.062 | 2.64 ± 0.047
DDKVSVVEKEKIESLAG [UBP6] | 3.31 ± 0.2 | 2.84 ± 0.24 | 2.89 ± 0.17 | 3.37 ± 0.14
KTQFSWQYYYYTLTEEG [RPS10A] | 2.06 ± 0.065 | 2.33 ± 0.052 | 2.59 ± 0.054 | 2.35 ± 0.058
LSDYNIQKESTLHLVLR [RPS31] | 2.78 ± 0.08 | 2.72 ± 0.051 | 2.23 ± 0.065 | 2.58 ± 0.058
ALGEFADWDPESMAYTA [YML031W/NDC1] | 3.52 ± 0.14 | 3.54 ± 0.089 | 3.36 ± 0.083 | 3.26 ± 0.064
AAIKDLDDFGEEELFEV [RRP43] | 2.46 ± 0.11 | 2.49 ± 0.14 | 2.17 ± 0.13 | –
SLAGFHKVQTKLTRELE [RPS7A] | 2.4 ± 0.065 | 1.98 ± 0.06 | 1.57 ± 0.13 | 2.04 ± 0.058
TSTNGDSENNEENSSSN [RGR1] | 2.64 ± 0.18 | 3.18 ± 0.11 | 3.36 ± 0.11 | 2.95 ± 0.086
RTQFGGGKSVGFGLVYN [RPS24A] | 2.96 ± 0.065 | 2.82 ± 0.05 | 3.27 ± 0.047 | 2.91 ± 0.055
DSYGQGSMTKTWYVGNS [SSN2] | 2.94 ± 0.13 | 3.09 ± 0.16 | 3.34 ± 0.16 | 3.05 ± 0.088
YGPPGTGKTLLAKAVAA [RPT4] | 2.17 ± 0.069 | 2.23 ± 0.06 | 1.98 ± 0.089 | 1.93 ± 0.05
CRRMILTHVDLIEKFLR [RPB10] | 2.85 ± 0.21 | 1.46 ± 0.11 | – | 2.04 ± 0.099
DNPDQGISDMCRLFFTE [YCS4] | 3.37 ± 0.14 | 3.63 ± 0.15 | 3.03 ± 0.14 | 3.04 ± 0.15
IIPQDILDCVVTNSMRQ [YJR042W/NUP85] | 3.01 ± 0.069 | 3.15 ± 0.072 | 3.35 ± 0.044 | 2.94 ± 0.063
NGDKKVDIYSLPLISTD [YMR129W/POM152] | 2.88 ± 0.076 | 2.76 ± 0.056 | 2.88 ± 0.034 | 3.03 ± 0.051
KIVEIDRHIGCAMSGLT [PUP2] | 1.82 ± 0.07 | 2.32 ± 0.091 | 2 ± 0.14 | 2.17 ± 0.06

Sequence | protein stability index (doa10∆) | protein stability index (pdr5∆) | protein stability index (san1∆) | protein stability index (ubr1∆)
DIFGDSELFDEWFEQNN [ISW2] | 2.36 ± 0.069 | 2.49 ± 0.072 | 1.31 ± 0.15 | 1.63 ± 0.056
EKLVSDLRLIKVPQQAA [SMC1] | 3.19 ± 0.18 | 3.44 ± 0.16 | 2.16 ± 0.24 | 3.3 ± 0.14
VYANNPEVSDDGGLEEE [SIR3] | 2.97 ± 0.13 | 2.87 ± 0.12 | 2.52 ± 0.14 | 3.04 ± 0.09
KCPLLVEVDITLSPNVT [GRR1] | 1.8 ± 0.058 | 1.83 ± 0.065 | 1.76 ± 0.088 | 2.51 ± 0.071
ILNLYSSAHLIRINDEP [YML103C/NUP188] | 1.99 ± 0.096 | 2.18 ± 0.18 | 1.8 ± 0.26 | 1.77 ± 0.092
IRKFFGLSKEDDVRDFV [RPS6A] | 3.43 ± 0.1 | 3.35 ± 0.098 | 3.38 ± 0.12 | 3.32 ± 0.098
VQGKNLLTNFHGMDFTT [RPS1A] | 3.42 ± 0.078 | 3.42 ± 0.055 | 3.22 ± 0.045 | 3.23 ± 0.052
AKKSTTISKESTPDQRK [ESC2] | 2.59 ± 0.1 | 2.78 ± 0.12 | 2.94 ± 0.13 | 2.92 ± 0.054
LKISGEEESLHVFQYAN [RPC37] | 1.85 ± 0.13 | 2.21 ± 0.13 | 2.27 ± 0.14 | 2.41 ± 0.071
KKVGITGKYGVRYGSSL [RPL43A] | 3.16 ± 0.065 | 3.28 ± 0.051 | 3.3 ± 0.045 | 3.15 ± 0.033
QGFSKDTFELIKTFLVD [YDL116W/NUP84] | 3.02 ± 0.079 | 3.26 ± 0.063 | 2.75 ± 0.062 | 3.25 ± 0.043
FLTPMDSIDLAPNTLTN [YML103C/NUP188] | 1.51 ± 0.18 | 1.68 ± 0.1 | 1.98 ± 0.18 | 1.26 ± 0.082
PRDLLRVIIQELRFPSP [PRP28] | 1.74 ± 0.047 | 1.94 ± 0.055 | 1.78 ± 0.064 | 1.72 ± 0.061
TFDLTPEDAQLLLAANT [RPS0A] | 2.28 ± 0.054 | 1.88 ± 0.049 | 2.31 ± 0.088 | 2.45 ± 0.053
DLKNTRMKSITSTSQKI [SNF5] | 3.23 ± 0.082 | 3.14 ± 0.074 | 3.17 ± 0.045 | 3.08 ± 0.05
TNTFEGSGNNNEIESRQ [SNU114] | – | 3.48 ± 0.17 | 3.25 ± 0.11 | –
RSEEEVTKLNVLVDEIK [YIL149C/MLP2] | 3.42 ± 0.15 | 3.5 ± 0.11 | 3.24 ± 0.059 | 3.36 ± 0.082
KQLNSLRRSGQIANDPS [SMD1] | 2.56 ± 0.09 | 3.02 ± 0.14 | – | 2.91 ± 0.07
TIANSIILHFANFGEIL [YMR153W/NUP53] | 2.15 ± 0.055 | 2.38 ± 0.054 | 2.23 ± 0.062 | 2.27 ± 0.062
FTNELKAELDRYKRENQ [SEM1] | 3.09 ± 0.16 | 3.38 ± 0.14 | 2.98 ± 0.11 | 3.41 ± 0.24
STMGTPTVHNSTAAAPI [PGD1] | 2.83 ± 0.095 | 3.07 ± 0.059 | 2.76 ± 0.06 | 2.93 ± 0.049
